The values that follow come from paper PMC7210961.

Assay [1] deals with hNav1.7 E818R (human) (UniProt Q15858).
The target in assay [2] is Nav1.8/1.7 DII s3b-s4 chimaera (reverse chimaera: DII s3b-s4 of Nav1.7 built into Nav1.8) (rat | human).
Assay [3] addresses human Nav1.7 (hNav1.7), wild type (human) (UniProt Q15858).
Assay [4] concerns the target human Nav1.9 with C-terminal GFP (hNav1.9-GFP), wild type (human) (UniProt Q9UI33).

Substance “HpTx1 (spider peptide toxin; rational nomenclature κ-sparatoxin-Hv1a) (from UniProt P58425 1-33)” showed a fold reduction in HpTx1 activity (IC50 of current inhibition) against WT hNav1.7 (whole-cell patch clamp) in assay [1] of 20 fold. The dose-dependent inhibition of the currents of the reverse chimaeric channel by HpTx1 (whole-cell patch clamp), IC50 in assay [2] is 3000 nM. Further, in assay [3], the dose-dependent inhibition of hNav1.7 currents in HEK293T cells (whole-cell patch clamp), IC50 is 510 nM. This substance gave an inhibition of the fast inactivation of hNav1.9 currents in ND7/23 cells, dose-response (whole-cell patch clamp), EC50 in assay [4] of 470 nM.
